# Experimental data as given in PMC11980386.
# Several values for one entry are separate records, joined by “and”; a condition that tells them apart may be missing. Equal values may be shown once.
# Key:
# [1] = target: CD0828 of Clostridioides difficile (annotated as a glutamate synthase, with an N-terminal rubredoxin-like domain) (Clostridioides difficile); assay: SEC; Superdex S200 10/300 GL, 20 mM Tris-HCl pH 7.5, 18% glycerol, 150 mM NaCl; mass read against a second set of standards (ovalbumin, conalbumin, aldolase, ferritin, thyroglobulin)
# [2] = target: Rubrerythrin Rbr (CD0825) of Clostridioides difficile (Clostridioides difficile); assay: SEC; Superdex S200 10/300 GL, 20 mM Tris-HCl pH 7.5, 18% glycerol, 150 mM NaCl; mass read against protein standards
# [3] = target: Superoxide reductase Sor (CD0827, desulfoferrodoxin) of Clostridioides difficile (Clostridioides difficile); assay: SEC; Superdex S200 10/300 GL, 20 mM Tris-HCl pH 7.5, 150 mM NaCl, no glycerol; mass read against protein standards
substance,measurement,setting,value
"CD0828 of Clostridioides difficile (annotated as a glutamate synthase, with an N-terminal rubredoxin-like domain) (natural protein)",stoichiometry N,[1],2
Rubrerythrin Rbr (CD0825) of Clostridioides difficile (enzyme),stoichiometry N,[2],4
"Superoxide reductase Sor (CD0827, desulfoferrodoxin) of Clostridioides difficile (enzyme)",stoichiometry N,[3],2 and 4
